# Laboratory results reported in patent publication US9579300.
# Legend:
# purified αVβ3 integrin [1] = target: purified αVβ3 integrin (UniProt P06756); experiment: [125I]-T4 radioligand displacement on purified αVβ3, native gel band intensity; SC7312 at 4 µg/ml
# purified αVβ3 integrin [2] = target: purified αVβ3 integrin (UniProt P06756); experiment: [125I]-T4 radioligand displacement on purified αVβ3, native gel band intensity; SC7312 at 8 µg/ml
# purified αVβ3 integrin [3] = target: purified αVβ3 integrin (UniProt P06756); experiment: [125I]-T4 radioligand displacement on purified αVβ3, native gel band intensity; SC7312 at 2 µg/ml
# purified αVβ3 integrin [4] = target: purified αVβ3 integrin (UniProt P06756); experiment: [125I]-T4 radioligand displacement on purified αVβ3, native gel band intensity; SC7312 at 1 µg/ml
# purified αVβ3 integrin [5] = target: purified αVβ3 integrin (UniProt P06756); experiment: [125I]-T4 radioligand displacement on purified αVβ3, native gel band intensity; SC7312 at 8 µg/ml (figure legend; Example 17 prints 59%)
# purified αVβ3 integrin [6] = target: purified αVβ3 integrin (UniProt P06756); experiment: [125I]-T4 radioligand displacement on purified αVβ3, native gel band intensity; LM609 at 2 µg/ml
# purified αVβ3 integrin [7] = target: purified αVβ3 integrin (UniProt P06756); experiment: [125I]-T4 radioligand displacement on purified αVβ3, native gel band intensity; LM609 at 4 µg/ml
# purified αVβ3 integrin [8] = target: purified αVβ3 integrin (UniProt P06756); experiment: [125I]-T4 radioligand displacement on purified αVβ3, native gel band intensity; LM609 at 8 µg/ml
# purified αVβ3 integrin [9] = target: purified αVβ3 integrin (UniProt P06756); experiment: [125I]-T4 radioligand displacement on 2 µg purified αVβ3, native gel band intensity; LM609 at 1 µg/ml
# UniProt P06756, sequence (P06756 31-1048, form in doubt, chain 1 of 2): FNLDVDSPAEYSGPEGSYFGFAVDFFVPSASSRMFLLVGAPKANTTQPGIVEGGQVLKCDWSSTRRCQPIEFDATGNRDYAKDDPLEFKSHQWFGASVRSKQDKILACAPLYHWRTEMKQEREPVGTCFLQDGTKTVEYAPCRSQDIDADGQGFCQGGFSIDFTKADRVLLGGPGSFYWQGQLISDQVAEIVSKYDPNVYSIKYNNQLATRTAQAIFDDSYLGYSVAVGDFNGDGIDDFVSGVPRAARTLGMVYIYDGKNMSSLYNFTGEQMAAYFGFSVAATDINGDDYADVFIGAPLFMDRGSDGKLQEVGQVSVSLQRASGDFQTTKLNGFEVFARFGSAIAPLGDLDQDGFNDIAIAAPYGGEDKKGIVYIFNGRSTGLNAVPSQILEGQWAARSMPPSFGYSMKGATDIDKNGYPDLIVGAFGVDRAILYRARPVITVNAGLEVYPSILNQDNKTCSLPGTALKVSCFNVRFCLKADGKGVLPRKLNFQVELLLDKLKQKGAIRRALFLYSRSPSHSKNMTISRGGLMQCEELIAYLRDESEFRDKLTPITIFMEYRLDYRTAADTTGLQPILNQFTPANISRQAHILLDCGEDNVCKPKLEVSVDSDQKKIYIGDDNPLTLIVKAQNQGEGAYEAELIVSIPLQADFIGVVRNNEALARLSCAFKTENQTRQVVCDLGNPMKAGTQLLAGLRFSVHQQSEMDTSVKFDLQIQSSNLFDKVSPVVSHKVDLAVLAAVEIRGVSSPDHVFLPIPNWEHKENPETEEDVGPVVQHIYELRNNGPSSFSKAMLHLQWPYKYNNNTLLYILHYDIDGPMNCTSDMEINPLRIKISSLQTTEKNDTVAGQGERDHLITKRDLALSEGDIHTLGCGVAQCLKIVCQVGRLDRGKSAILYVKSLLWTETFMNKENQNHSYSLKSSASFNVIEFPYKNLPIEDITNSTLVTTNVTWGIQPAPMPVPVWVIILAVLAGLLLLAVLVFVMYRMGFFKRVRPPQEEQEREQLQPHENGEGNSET
# UniProt P06756, sequence (P05106 27-788, form in doubt, chain 2 of 2, further chain): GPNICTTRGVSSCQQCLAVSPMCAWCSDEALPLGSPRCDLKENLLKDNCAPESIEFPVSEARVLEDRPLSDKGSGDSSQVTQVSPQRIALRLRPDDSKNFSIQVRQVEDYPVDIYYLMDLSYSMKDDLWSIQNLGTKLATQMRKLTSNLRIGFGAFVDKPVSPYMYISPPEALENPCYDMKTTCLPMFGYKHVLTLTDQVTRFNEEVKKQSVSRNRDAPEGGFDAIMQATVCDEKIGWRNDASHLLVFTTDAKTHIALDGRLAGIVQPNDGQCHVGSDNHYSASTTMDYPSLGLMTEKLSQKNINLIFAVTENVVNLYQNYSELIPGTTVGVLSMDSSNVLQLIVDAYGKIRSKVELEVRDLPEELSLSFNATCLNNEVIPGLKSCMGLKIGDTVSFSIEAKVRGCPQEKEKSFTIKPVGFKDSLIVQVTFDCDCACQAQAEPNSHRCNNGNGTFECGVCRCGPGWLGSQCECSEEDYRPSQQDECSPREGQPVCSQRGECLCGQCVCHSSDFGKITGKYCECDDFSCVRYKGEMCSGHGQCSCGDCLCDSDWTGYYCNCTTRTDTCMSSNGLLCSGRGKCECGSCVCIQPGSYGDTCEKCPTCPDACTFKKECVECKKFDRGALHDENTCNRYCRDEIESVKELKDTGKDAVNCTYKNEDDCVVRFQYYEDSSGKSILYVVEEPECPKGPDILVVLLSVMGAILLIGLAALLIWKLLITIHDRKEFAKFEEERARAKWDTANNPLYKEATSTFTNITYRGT
percent reduction of T4 binding to αVβ3 (purified αVβ3 integrin [1]) [%],percent reduction of T4 binding to αVβ3 (purified αVβ3 integrin [2]) [%],percent reduction of T4 binding to αVβ3 (purified αVβ3 integrin [3]) [%],percent reduction of T4 binding to αVβ3 (purified αVβ3 integrin [4]) [%],percent reduction of T4 binding to αVβ3 (purified αVβ3 integrin [5]) [%],percent reduction of [125I]T4-αVβ3 band intensity (purified αVβ3 integrin [6]) [%],percent reduction of [125I]T4-αVβ3 band intensity (purified αVβ3 integrin [7]) [%],percent reduction of [125I]T4-αVβ3 band intensity (purified αVβ3 integrin [8]) [%],percent reduction of [125I]T4-αVβ3 complex formation (purified αVβ3 integrin [9]) [%],Substance
47,59,46,20,58,,,,,monoclonal antibody SC7312 to αVβ3
,,,,,64,63,81,52,monoclonal antibody LM609 to αVβ3
